# Test results from patent publication US20250206839A1, “METHODS, COMPOSITIONS AND USES FOR SEMA7A MONOCLONAL ANTIBODIES” (THE REGENTS OF THE UNIVERSITY OF COLORADO, A BODY CORPORATE, priority 2022, published 2025).
# Biological target: T1, purified SEMA7A (Homo sapiens, UniProt O75326)
# T1 construct: Fc; made in house; host or cells: cells stably transfected with SEMA7A-Fc plasmid (human breast cancer cells); purified from medium
# T1 sequence (O75326 45-648 limits assumed): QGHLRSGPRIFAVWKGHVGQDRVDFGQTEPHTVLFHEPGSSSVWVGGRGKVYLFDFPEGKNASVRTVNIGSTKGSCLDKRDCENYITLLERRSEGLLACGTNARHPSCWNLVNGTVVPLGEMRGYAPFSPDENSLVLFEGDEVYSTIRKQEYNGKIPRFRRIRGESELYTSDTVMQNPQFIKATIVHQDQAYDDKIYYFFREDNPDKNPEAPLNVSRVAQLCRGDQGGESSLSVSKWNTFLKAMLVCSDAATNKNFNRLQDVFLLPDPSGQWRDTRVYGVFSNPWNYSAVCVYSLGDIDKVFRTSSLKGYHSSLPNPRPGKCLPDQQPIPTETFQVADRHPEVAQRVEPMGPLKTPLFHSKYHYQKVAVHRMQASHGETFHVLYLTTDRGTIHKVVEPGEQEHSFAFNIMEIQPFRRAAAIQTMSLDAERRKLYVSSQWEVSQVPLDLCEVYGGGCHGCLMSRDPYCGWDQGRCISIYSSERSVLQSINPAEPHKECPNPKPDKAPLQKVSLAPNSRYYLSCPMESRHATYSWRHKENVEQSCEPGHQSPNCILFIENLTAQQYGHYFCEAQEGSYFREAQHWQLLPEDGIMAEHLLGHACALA
# Assay: ELISA binding to purified SEMA7A
# Procedure: The MultiSorp ELISA 96 well ELISA plate (Thermo Scientific) was coated with 100 μl per well of 50 μg/ml of purified SEMA7A in Coating Buffer A (Thermo Scientific CB07100) and allowed to attach overnight with gentle rocking at 4 degrees. For the peptide competition, half of the antibody was incubated in an Eppendorf tube overnight at a ratio of 1:10 with the SEMA7A peptide on a rotator at 4 degrees. The plate was washed with 200 μl per well of 1× wash buffer (Thermo Scientific WB01) and blocked with 200 μl 1× assay buffer (Thermo Scientific DS98200) for 2 hours and room temp with gentle rocking. 1× assay buffer was removed and a 200 μl serial dilution of SMEA7A mAb in 1× assay buffer was made from columns 1 through 9, with column 10-12 getting 1× assay buffer only. The plate was incubated overnight with gentle rocking at 4 degrees. The plate was washed twice with 200 μl of 1× wash buffer. 100 μl of 200 ng/ml Goat Anti-Mouse IgG HRP (Abcam 97040) in 1× assay buffer was added to columns 1-11, with column 12 getting 1× assay buffer only. The plate was incubated for 2 hours with gentle rocking at room temp. The plate was washed four times with 200 μl 1× wash buffer. 150 μl SuperSignal Femto for ELISA (Thermo Scientific) was mixed 1:1 added to each well and mixed for 1 min and then left to rock at room temperature for 30 minutes. The absorbance was read at 425 nm on a microplate reader.
molecule,measurement,setting,value
"recombinant anti-SEMA7A monoclonal antibody: recombinant anti-SEMA7A monoclonal antibody; illustrative recombinant heavy chain SEQ ID NO: 28, light chain SEQ ID NO: 29 (antibody) heavy: EVQLQQSGTVLARPGASVKMSCKASGYSFTSYWMHWVKQRPGQGLEWIGAIYPGNSDTSYNQKFKGKAKLTAVTSASTAYMELSSLTNEDSAVYYCTRGGAPTMITAYYAMDYWGQGTSVTVSSAKTTPPSVYPLAPGSAAQTNSMVTLGCLVKGYFPEPVTVTWNSGSLSSGVHTFPAVLQSDLYTLSSSVTVPSSTWPSETVTCNVAHPASSTKVDKKIVPRDCGCKPCICTVPEVSSVFIFPPKPKDVLTITLTPKVTCVVVDISKDDPEVQFSWFVDDVEVHTAQTQPREEQFNSTFRSVSELPIMHQDWLNGKEFKCRVNSAAFPAPIEKTISKTKGRPKAPQVYTIPPPKEQMAKDKVSLTCMITDFFPEDITVEWQWNGQPAENYKNTQPIMDTDGSYFVYSKLNVQKSNWEAGNTFTCSVLHEGLHNHHTEKSLSHSPGK light: DIQMTQTTSSLSASLGDRVTISCRASQDISNYLNWYQQKPDGTVKLLIYYTSRLHSGVPSRFSGSGSGTDYSLTISNLEQEDIATYFCQQGNTLPWTFGGGTKLEIKRADAAPTVSIFPPSSEQLTSGGASVVCFLNNFYPKDINVKWKIDGSERQNGVLNSWTDQDSKDSTYSMSSTLTLTKDEYERHNSYTCEATHKTSTSPIVKSFNRNEC",binding to purified SEMA7A in presence of immunizing peptide,10× immunizing peptide,blocked this ability
same,binding to purified SEMA7A,serial dilution,bound to purified SEMA7A in a dose dependent manner
